The source of these data is patent US20030059827A1, “Engineered protein binding domains and methods and systems for their design and use” (priority 2001, published 2003).

The term Kd denotes the free concentration of one partner at which half of the binding sites on the other are occupied at equilibrium, for simple one-to-one binding. Lower therefore signals a tighter complex.

The target in this assay is Biotin-GG-KQTSV. Put plainly: micro-calorimetry (isothermal titration). Background: Isothermal titration calorimetry measures the heat released or taken up as one component is titrated into another.

B1: wild-type PDZ (PDZ3 of PSD095) domain, Q62108 302-402 (protein, mouse, UniProt Q62108 302-402, looked up)
chain: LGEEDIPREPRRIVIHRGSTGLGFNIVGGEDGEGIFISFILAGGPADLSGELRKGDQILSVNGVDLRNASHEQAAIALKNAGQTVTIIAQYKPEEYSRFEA
In turn, B1 yielded a Ka of 25700 M⁻¹ and a Kd of 39 µM.
